These results are taken from publication PMC10731242, “Macromolecular crowding potently stimulates DNA supercoiling activity of Mycobacterium tuberculosis DNA gyrase”.

Holding throughout (conditions): protein: recombinant;recombinant, tags: His-TEV tag, removed by TEV protease;His-TEV tag, chain copies: 2;2, label: 3' Tamra~Q on FL1013, blunt
Data set [1] deals with T1, DNA gyrase subunit A (GyrA);DNA gyrase subunit B (GyrB) (Mycobacterium …, UniProt P9WG47;P9WG45 1-838;1-675, |). The experiment in a line: EMSA; 2 mM Mg2+, no crowding agent. (In general: A gel shift assay detects complexes by their altered migration in electrophoresis.)
Data set [2] has as its target T1, DNA gyrase subunit A (GyrA);DNA gyrase …. Put plainly: EMSA; 2 mM Mg2+, 5% PEG400.
Data set [3] shares this target. The experiment in a line: EMSA; 2 mM Mg2+, 2 M glycine betaine.

T1 sequence (P9WG47 whole entry, chain 1 of 2): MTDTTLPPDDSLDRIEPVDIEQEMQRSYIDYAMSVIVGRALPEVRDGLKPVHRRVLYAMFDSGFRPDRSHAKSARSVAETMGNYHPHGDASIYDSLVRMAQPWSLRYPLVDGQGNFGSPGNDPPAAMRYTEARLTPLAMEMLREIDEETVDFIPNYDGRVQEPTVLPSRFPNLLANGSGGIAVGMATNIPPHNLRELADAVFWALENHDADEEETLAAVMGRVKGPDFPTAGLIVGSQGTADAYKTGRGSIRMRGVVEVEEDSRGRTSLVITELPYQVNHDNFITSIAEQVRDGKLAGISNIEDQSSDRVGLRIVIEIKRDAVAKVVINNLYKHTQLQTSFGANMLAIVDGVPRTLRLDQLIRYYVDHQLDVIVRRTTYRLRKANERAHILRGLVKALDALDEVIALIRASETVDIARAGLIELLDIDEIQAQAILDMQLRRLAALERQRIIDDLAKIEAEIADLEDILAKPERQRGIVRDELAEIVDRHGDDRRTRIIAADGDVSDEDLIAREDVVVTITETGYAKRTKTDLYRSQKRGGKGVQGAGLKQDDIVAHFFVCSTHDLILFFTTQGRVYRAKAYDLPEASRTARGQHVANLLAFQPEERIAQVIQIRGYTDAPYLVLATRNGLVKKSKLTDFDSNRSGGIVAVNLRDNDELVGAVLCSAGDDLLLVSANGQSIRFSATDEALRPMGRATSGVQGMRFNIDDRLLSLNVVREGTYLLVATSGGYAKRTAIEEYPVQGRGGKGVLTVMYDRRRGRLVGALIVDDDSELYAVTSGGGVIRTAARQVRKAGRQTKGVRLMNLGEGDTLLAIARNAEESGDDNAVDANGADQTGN
T1 sequence (P9WG45 whole entry, chain 2 of 2): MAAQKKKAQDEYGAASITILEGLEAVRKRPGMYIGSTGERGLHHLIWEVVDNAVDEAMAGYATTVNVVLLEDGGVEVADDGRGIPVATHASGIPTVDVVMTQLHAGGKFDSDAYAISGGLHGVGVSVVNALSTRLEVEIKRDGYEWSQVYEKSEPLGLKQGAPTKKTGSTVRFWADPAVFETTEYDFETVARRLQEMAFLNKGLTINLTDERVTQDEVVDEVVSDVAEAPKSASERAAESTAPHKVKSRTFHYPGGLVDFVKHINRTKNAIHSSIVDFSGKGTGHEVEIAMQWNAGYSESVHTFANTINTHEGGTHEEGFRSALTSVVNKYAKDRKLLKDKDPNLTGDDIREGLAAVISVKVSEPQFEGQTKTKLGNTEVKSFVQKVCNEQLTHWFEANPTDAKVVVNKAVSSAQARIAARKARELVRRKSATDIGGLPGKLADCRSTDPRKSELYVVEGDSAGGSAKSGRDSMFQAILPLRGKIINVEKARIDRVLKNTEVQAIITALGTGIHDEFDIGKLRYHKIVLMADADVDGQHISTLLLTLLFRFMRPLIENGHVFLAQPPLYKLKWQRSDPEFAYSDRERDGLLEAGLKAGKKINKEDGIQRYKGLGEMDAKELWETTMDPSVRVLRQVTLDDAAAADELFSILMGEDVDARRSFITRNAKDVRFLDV

B1: 50 bp DNA oligomer (FL1013/FL1014) (dsDNA)
DNA 1: TCAGTCCGACATCGGTCATGAATGACTATGCACGTAAACGAGATGCCAAC
DNA 2: GTTGGCATCTCGTTTACGTGCATAGTCATTCATGACCGATGTCGGACTGA
For B1, the dissociation constant (Kd) (usually the concentration at which binding is half-saturated) was determined as 94 ± 4 nM in data set [1], 60 ± 24 nM in data set [2] and 85 ± 6 nM in data set [3].
